From publication PMC5686067, “Structural basis of adaptor-mediated protein degradation by the tail-specific PDZ-protease Prc” (Nature Communications, 2017)

Molecular target: the molecule itself
Test: AUC; sedimentation velocity, absorbance optics, 20 mM Tris-HCl pH 8.0, 100 mM NaCl, 2 mM DTT, 20 °C, c(s) model in Sedfit

| Protein | stoichiometry N |
| --- | --- |
| sNlpI (soluble NlpI without its lipoprotein signal peptide) (natural protein, E. coli, UniProt P0AFB1 20-294, looked up, NlpI, E. coli outer-membrane lipoprotein with four tetratricopeptide repeats, residues S20-Q294, without the lipoprotein signal peptide; Homodimer by AUC and in the crystal. pET28a vector with N-terminal His-tag; no removal of the tag is described; also called WT-NlpI; wild-type sNlpI; source: E. coli BL21(DE3), purified (Ni-NTA, MonoQ, Superdex 200); cleared cell lysate in the pull-down; not …) SNTSWRKSEVLAVPLQPTLQQEVILARMEQILASRALTDDERAQLLYERGVLYDSLGLRALARNDFSQALAIRPDMPEVFNYLGIYLTQAGNFDAAYEAFDSVLELDPTYNYAHLNRGIALYYGGRDKLAQDDLLAFYQDDPNDPFRSLWLYLAEQKLDEKQAKEVLKQHFEKSDKEQWGWNIVEFYLGNISEQTLMERLKADATDNTSLAEHLSETNFYLGKYYLSLGDLDSATALFKLAVANNVHNFVEHRYALLELSLLGQDQDDLAESDQQ | 2 |
| sNlpI-L38A (natural protein, E. coli, UniProt P0AFB1 20-294, looked up, NlpI, E. coli, residues S20-Q294 without the signal peptide, L38A in helix h1; source: E. coli BL21(DE3), purified (Ni-NTA, MonoQ, Superdex 200)) SNTSWRKSEVLAVPLQPTAQQEVILARMEQILASRALTDDERAQLLYERGVLYDSLGLRALARNDFSQALAIRPDMPEVFNYLGIYLTQAGNFDAAYEAFDSVLELDPTYNYAHLNRGIALYYGGRDKLAQDDLLAFYQDDPNDPFRSLWLYLAEQKLDEKQAKEVLKQHFEKSDKEQWGWNIVEFYLGNISEQTLMERLKADATDNTSLAEHLSETNFYLGKYYLSLGDLDSATALFKLAVANNVHNFVEHRYALLELSLLGQDQDDLAESDQQ | 2 |
| sNlpI-L38C (natural protein, E. coli, UniProt P0AFB1 20-294, looked up, NlpI, E. coli, residues S20-Q294 without the signal peptide, L38C in helix h1; source: E. coli BL21(DE3), purified (Ni-NTA, MonoQ, Superdex 200)) SNTSWRKSEVLAVPLQPTCQQEVILARMEQILASRALTDDERAQLLYERGVLYDSLGLRALARNDFSQALAIRPDMPEVFNYLGIYLTQAGNFDAAYEAFDSVLELDPTYNYAHLNRGIALYYGGRDKLAQDDLLAFYQDDPNDPFRSLWLYLAEQKLDEKQAKEVLKQHFEKSDKEQWGWNIVEFYLGNISEQTLMERLKADATDNTSLAEHLSETNFYLGKYYLSLGDLDSATALFKLAVANNVHNFVEHRYALLELSLLGQDQDDLAESDQQ | 2 |
| sNlpI-R82E (natural protein, E. coli, UniProt P0AFB1 20-294, looked up, NlpI, E. coli, residues S20-Q294 without the signal peptide, R82E in helix TPR1b; source: E. coli BL21(DE3), purified (Ni-NTA, MonoQ, Superdex 200)) SNTSWRKSEVLAVPLQPTLQQEVILARMEQILASRALTDDERAQLLYERGVLYDSLGLRALAENDFSQALAIRPDMPEVFNYLGIYLTQAGNFDAAYEAFDSVLELDPTYNYAHLNRGIALYYGGRDKLAQDDLLAFYQDDPNDPFRSLWLYLAEQKLDEKQAKEVLKQHFEKSDKEQWGWNIVEFYLGNISEQTLMERLKADATDNTSLAEHLSETNFYLGKYYLSLGDLDSATALFKLAVANNVHNFVEHRYALLELSLLGQDQDDLAESDQQ | 2 |
